Titration against 2.0 nM thrombin in presence of 200 µM D-Val-Leu-Arg-p-nitroanilide: fraction of active molecules and inhibition of α-thrombin digesting Chromozym TH data for 1 substance are collected here from patent US5661001.

For one test, the target named is human thrombin (human) (UniProt P00734).

In the case of [Cys^33 ]HV1--[Cys^33 ]HV1 dimer, the titration against 2.0 nM thrombin in presence of 200 µM D-Val-Leu-Arg-p-nitroanilide: fraction of active molecules with human thrombin (human) turned out to be 0.97. The substance further showed an inhibition of α-thrombin digesting Chromozym TH in the test with α-thrombin of 82%.
